Measurements as given in patent publication US20030153041A1.

Key:
[1] = target: human kidney PTH/PTHrP receptor (full-length cDNA HKrk) (human); assay: apparent Kd, competitive radioreceptor assay on COS-7 cells expressing the human receptor (FIG. 17)
[2] = target: opossum kidney PTH/PTHrP receptor clone OK-H (opossum); assay: cell-based or functional assay
[3] = target: rat bone PTH/PTHrP receptor clone R15B (rat); assay: radioreceptor assay, radiolabelled ligand (~200,000 cpm) on COS-7 cells expressing R15B
[4] = target: human kidney PTH/PTHrP receptor (full-length cDNA HKrk) (human); assay: radioreceptor assay, radiolabelled ligand (~200,000 cpm) on COS-7 cells expressing the human receptor
[5] = target: human kidney PTH/PTHrP receptor (full-length cDNA HKrk) (human); assay: competitive radioreceptor assay on COS-7 cells; human receptor against rat bone receptor
[6] = target: rat bone PTH/PTHrP receptor clone R15B (rat); assay: apparent Kd, competitive radioreceptor assay on COS-7 cells expressing the rat bone receptor (FIG. 17)
[7] = target: rat bone PTH/PTHrP receptor clone R15B (rat); assay: affinity from competitive radioreceptor assay on COS-7 cells expressing R15B
[8] = target: human kidney PTH/PTHrP receptor (full-length cDNA HKrk) (human); assay: competitive radioreceptor assay on COS-7 cells; HKrK against R15B
[9] = target: human kidney PTH/PTHrP receptor (full-length cDNA HKrk) (human); assay: affinity from competitive radioreceptor assay on COS-7 cells expressing HKrK
[10] = target: human kidney PTH/PTHrP receptor (full-length cDNA HKrk) (human); assay: competitive radioreceptor assay on COS-7 cells; human receptor against rat receptor
[11] = target: human kidney PTH/PTHrP receptor (full-length cDNA HKrk) (human); assay: affinity from competitive radioreceptor assay on COS-7 cells expressing HKrk

| Kd [1] [nM] | concentration of intracellular free calcium (Fura-2) [2] [nm] | specific binding [3] [%] | specific binding [4] [%] | fold difference in apparent Kd against the rat bone PTH/PTHrP receptor [5] [fold] | Kd [6] [nM] | Kd [7] [nM] | fold higher affinity against R15B [8] [fold] | Kd [9] [nM] | fold lower affinity against the rat receptor [10] [fold] | Kd [11] [nM] | Substance |
| --- | --- | --- | --- | --- | --- | --- | --- | --- | --- | --- | --- |
| 5 | 39 | 8.1 | 10.1 | 2 | 10 |  |  |  |  |  | [Nle^8,18, Tyr^34]bPTH(1-34)amide (from UniProt P01268 32-65) (peptide) |
|  |  |  |  |  |  | 45 | 7 | 7 |  |  | [Nle^8,18, Tyr^34]bPTH(3-34)amide (from UniProt P01268 34-65) (peptide) |
|  |  |  |  |  |  | 2000 | 35 | 60 |  |  | [Nle^8,18, Tyr^34]bPTH(7-34)amide (from UniProt P01268 38-65) (peptide) |
|  |  | 7.1 | 7.6 |  |  | 10 |  |  | 2 to 4 | 35 | [Tyr^36]PTHrP(1-36)amide (from UniProt P12272 37-72) (peptide) |
